Results taken from the DeepSol protein solubility set.

Experiment: soluble on expression in E. coli; label from the status in PepcDB or PDB records

Sequence	soluble on expression in E. coli
MAGDPMSRPPVPPFTCKTAIEKVRLAEDGWNSRDAAKVALAYTVDTRWRNRVEFATNREEAQAFLTRKWNREHEYRLIKELWAFTGNRIAVRYAYEYRDDNGQWFRAYGNENWEFAEDGLMAHRHACINEMPIAESDRLYHWPLGRRPDDHPSLTDLGLLEHHHHHH	not soluble
MAGDPMVTQNKKILIITGSFGNGHLQVTQSVVNQFKEMNLDNLTVIEHDLFLEAHPILTSICKKWYINSFKYFRNMYKAFYYSQPDQLDKCFYKYYGLNKLMNLLLKEKPDLILLTFPTPVMSVLTEQFDMNIPIATVMTDYRMQKNWITPFSQRYYLATEELKDEFASIGIPKDKLKVTGIPISDKFETDIDKTAWLSQNHLDPDKPTILMSAGAFGVSKGFGQMIQEILNRSPHAQVVMICGKNKDLKRSLTSQFKDFNNVLILGYTKHMNEWMASSQLMITKPGGITISEALTRQIPMIFLDPAPGQELENAVYFEEKGYGRIANTPEAAIEQVAALTNAPTKLASMSESMDASRIPYSTYKLCKDLLNLLNHSSHYEEVYGKVPLYAKLFVKLEHHHHHH	not soluble
MAGEILVIGGGISGLTAAIEAAETGYDVILLEKNPYLGGRVSQLNKYFPKLCPPFCGLEILFKRMKSTPKLKYFTNAEVQEISGESGNFTVKVKLKPRYVNENCTACGACKEVCPIEAPDEYNFGLKKKKAIDLPNIMAMPFQYYIDDKYCNKCGECVSACKYNAIDLNEEEREMTLNVSSIIVATGWKPYDATKLDNLGYGKYKNVITNMEMERLASPNGPTGGVIQTMDGKPIETIAFVQCAGSRDENHLPYCSAICCLASLKQATYVREQYPDAKIYIFYIDIRAFGRYEDFFAKVKADEKIELIKGKVAKVEEVDGKLVVTAEDTLTGVKSKKEVDMVVLATGMQPAIEPIPGLELDEYGFVKPKPGIIPVGVAAMPMEVASANETATAAALKAIQLARRLEHHHHHH	soluble
MAGHSKWAQIKRKKAANDLKRGKLISKHLRAIQAAARAGGSPYPEANVQLRNAIEAARADDVPMENIERLLQKLQGGGEGAEQYEEIVYEGYAPGGVALLVYALTDNRNRTASEVRHVFSKHGGSLGTTGSVAWQFERRGVVVCENTEAAQEAAIELGALDLEEEGENLTVYTEPTEAYRIAEALKAKGVRVEAVEVVQHPQNTVALPPEEAQKVMRLVEALEDLDDVQHVYTNLDPESLQVEA	soluble
MAGHVHKVAVRQLKLLRYRNYFSFNIRFSGQHVVFTGHNGSGKTNLLEALSFLSPGRGLRRAAYSDVSFANGGGEGFVVFARLECALYGEVNIGTALEMSDNSRKVHINGVNETGDCLTDYCHMSILTPSMDGLFTGSSLERRRFLDRMVLAIDPLHSRRIADYDRVMRARNRLFLDGNEDCAWFDALEKQMAELATAISAARIDVIRLLNDMLARTPSQLPFPRAFLQIDGFLEAALSKISAVEVEEQFCDRLQHNRAIDRAAGRTLEGPHRTDLQVFYADKNMAAASCSTGEQKALLTGLVLCHARLTGLMSERTPILLLDEIVAHLDSHRRAALFDILDDLGGQTFMTGTDPILFNALKGRAEFFAIKDGTLLQ	not soluble
MAGHVNGTCAPVIPKVGDEEDGVGQLVANLKEKGTNFVLLKKTPQILELQTILKDRSTNHSDFVFNADRLMRLVIEECLNHLPFTEHTVTTPTGFKYEGIQFNRGNCGVSLCRSGEAMEVSLRQCCRCIRIGKILIGDEQKVLYARLLPDITSRRVLLLYPTIGSGTTVCKAIEVLKEARVPDENIYLVSLFISPTGLKNITRKYPYITVVASDITSLYPNHFSTSYFGAV	not soluble
MAGKCVFIVGAKRTAFGTFGGKLKGLSATDLGVVASQAALKHANVGADAVDHVIFGNVVASSRDGIYLSRHIGLKSGVPQNVGALTVNRLCGSGFQAVVNAAQAIKLGESNIVLAGGTENMSMVPFAVRDIRFGTALGKKYEFEDMLWDSLSDPYAKLAMGQTAEKLGAQYKVTRQEADEFALRSQTLWKKAQEAGVYKNEIVGITIKGRKGEESFEIDEHPRATTAESLAKLKPVFQKDGLVNAGNASGISDGAAALVVAGEDSVKSKNLKPLARVVAYSAVGCDPTIMGIGPAPAIREVLKKSGLKIGDIDIFEVNEAFAPQALAVQRELGIPMEKLNVNGGAIALGHPLAASGARISTHIVHELHRRNVKYGIGSACIGGGQGIAILFEKIEMKVLSKKKFFSEKNQKSANTSTQSRVSDANSPPPPPPHFTRSFLGL	soluble
MAGLKRRASQVWPEEHGEQEHGLYSLHRMFDIVGTHLTHRDVRVLSFLFVDVIDDHERGLIRNGRDFLLALERQGRCDESNFRQVLQLLRIITRHDLLPYVTLKRRRAVCPDLVDKYLEETSIRYVTPRALSDPEPRPPQPSKTVPPHYPVVCCPTSGPQMCSKRPARGRATLGSQRKRRKSVTPDPKEKQTCDIRLRVRAEYCQHETALQGNVFSNKQDPLERQFERFNQANTILKSRDLGSIICDIKFSELTYLDAFWRDYINGSLLEALKGVFITDSLKQAVGHEAIKLLVNVDEEDYELGRQKLLRNLMLQALPLEHHHHHH	not soluble
MAGPSLVEVAAAVLIRPDDSFLLACRPDGKPYAGYWEFPGGKIETGESPLQALARELDEELGITVRQATPWLTRTFSYPHATVRLRFYRVTDWHGELTPRERQQFAWQTAENITVSPLLPANTPILRSLALPSIYAVTRTVETDIEASLLSIGQTLGNGVKLLQIRQKAMSHDQLEHFSRTALQLARSYQATVLINENIPLAQTLQADGVHLTAAQLRSLHSRPAVNWCGASCHNEQELQRAERLGVDFVTLSPVQPTLSHPGAAALGWKEFAALIRDYPLPVYALGGLLPADLETAREYGAHGIAMMRSILEHHHHHH	not soluble
MAGSVGEETEPEWIKRVKLEGAVPCLKPDDNCKNGWTTPSPDTFMVRGPKYFSDKVKIPAGDFLLKPLGFDWIKGPKKLSEILSYPSSRIRKVIDEEFQKDGTKPFVWAFNLQLPHKDNYSAVAYFVTTEPILEGSLMDRFLKGDDGFKKSRLKLIANIVKGPWIVRKAVGEQAICVIGRALSCKYVSGENFVEIDVDIGSSMVASAIVHLAFGYVTTLTVDLAFLIESQTEAELPEKLLGAVRFSELQTESATSIELSSSTSNDQWDQTTSERSSWWKSIGNGFSNLLNQDTANMNNTSHGDIQKDEHVQKQ	soluble
MAHHHHHHMADQNPDLKVEEALKGADIKLLLIDFDGTLFVDKDIKVPSENIDAIKEAIEKGYMVSICTGRSKVGILSAFGEENLKKMNFYGMPGVYINGTIVYDQIGYTLLDETIETDVYAELISYLVEKNLVNQTIFHRGESNYVTEDNKYADFLQKMYSENRSIIIRHNEMLKYRTMNKLMIVLDPSESKTVIGNLKQKFKNKLTIFTTYNGHAEVTKLGHDKYTGINYLLKHYNISNDQVLVVGDAENDIAMLSNFKYSFAVANATDSAKSHAKCVLPVSHREGAVAYLLKKVFDLKK	soluble
MAHHHHHHMADVDEWRGASFKQEEDHSEATTSLLEKINATTIPVLLRSTNKSLQDLVDELLTLEKIARLGGDALSTQRLAVEVIRVYRVQGDYAKMLLVLEMLMRKRGQTKMTQSAMIAECAVMISDASLPKESRREVLERVVHLTDSRIHVELEHARFAIDLAKLMESEGQKRAACDLLSGLHVETITNMPRAEKLDALNCLIRLCLELEDYEHTPLVSRRINHRALARAESREAKLTYFELMRHYYTQRKSYFNVARCWYETYLTETEEGAKLAALSSMAVHYLIAEHATPKALEDLAECTAFSPATYFAERNAAIQGITTKLQKQLEDIPQLQYLLQRFTSIELIREKVAREVETLCANHPQLAGHEDRQLLLRSRCSEHDLLVVSRFYRRLRLDRLAQLVGLTPEHTEEFLMMMVASKTLYAKMDRVDGLVVFEAKKNATEVINGWNEAVERSVALLDKASHLIVKERMLHNISAARAQQAVTL	not soluble
MAHHHHHHMAERSSTLVINEAKTKNRLSDSLRSPTDRTREHLISHRNFSSVLESAADCTSASSTPDLQEEEDVQHKRALDLFSATPHSGEFSPLIEWLLRRGERGDVGAPTASQKDGDEYTQASFFNEDYIMNLCAAATAVLGKEPALLDLEVVAHDTLVVVGDIHGQFQDLYTSVLCQQYDRRRCNPEGRDCRFLFMGDYVDRGPHSLEVVLLLLALKVEYPTLVYLTRGNHEEEKTSRVYGFLTEATSSLGAAAGTAVWSAVNKVFLDLPLAAIVQTLYMRFFVTHGGLSPGLQNVEVICALERHNYSCGNITAAEDDLIAGLLWSDPTNEVAMYKRNPRGCGFLFGPSASNRFCADNNFDFICRAHQVAMEGYMWTHNDRVLTVFSAPNYCGVNRNKGAVLLIKGYSRRPIVQQYDSAEKSEAAPARKTDFAFADMFA	not soluble
MAHHHHHHMAKLSKQQKKQMYIEKLSSLIQQYSKILIVHVDNVGSNQMASVRKSLRGKATILMGKNTRIRTALKKNLQAVPQIEKLLPLVKLNMGFVFCKDDLSEIRNIILDNKSPAPARLGVIAPIDVFIPPGPTGMDPSHTSFFQSLGISTKIVKGQIEIQEHVHLIKQGEKVTASSATLLQKFNMKPFSYGVDVRTVYDDGVIYDAKVLDITDEDILEKFSKGVSNVAALSRATGVITEASYPHVFVEAFKNIVALIIDSDYTFPLMENIKKMVENPEAFAAVAAPASAAKADEPKKEEAKKVEEEEEEEEDGFMGFGMFD	not soluble
MAHHHHHHMAPPQTTLSLDANLRNTLRSLLIERLCSPTQPLPAKQLYDELTNRSRLVEEFHFSKTSRRITRQRLALQFLRRYNVLLHGLFFYSEGTRTWNTTTEFHRLAILGESVLLTEVRTRLLKLFPVMPYAAYVQSLPHMVGEEALAAAFDRYEMQNIVGAKPSNQRSGTPLTRMQKSHMLCAIVAEMYWFTARTKPTDLTHNNALFPPSDVLILHVLSTHLLENLPAELIYNVVEPIVADIKRVWVNEPMSLPSQLRLTPRTVGALSLNAVPVDLRYTAKEDAVMSLQKKHEEAHRRQHALTREPDHSCVKSFMRPSCNYRIFDGPRYQILSSDNRVAPLPLAQERSSLPASAVCTVVDDADSAARAMELAKMAEQW	not soluble
MAHHHHHHMARRLQQAWRAFAARRERRYRAAAVAQCARKRLEREEVWQLVWQDQFTELDMLCMLERQYIEEQQHVKRVRLYKYLCDPNGATNDDCGTQTPGAFNADADLLKWATLYDE	not soluble
MAHHHHHHMASADVVSTWVCPICMVSNETQGEFTKDTLPTPICINCGVPADYELTKSSINCSNAIDPNANPRNQFG	soluble
MAHHHHHHMASAEAEVAADMSAMWRYAEEARAGSSALSDLTYAERQAMLRAVAKALQTNEARILEANREDMVAAKANATADPLLRRLELTPSKLATLIEGISTLADMPDPIGQILSARELDNNLLLLKQTAPIGVVLVVFESRPESLPQIASLALCSGNGLLLKGGREGEHSNAVLHDLIVSAVESSTQGRVPRGVIGLVTNRADVYSLLQLDAHIDLVVPRGSNAMVQNIQRSTRIPVLGHADGICHVYVHKDADVDAALAVAIDAKLNYPAACNAAETLLLHRDLLHSPAHGTTAAQFLVNGMTEAGVSFYAGPQAIAAGLASELAASLHMEYGDAHMTVEVVDDLAAAIAHVNRHGSHHTDTILTVDKAAAAEFQRRVESACVFHNCSTRFADGFRFGLGAEVGISTARIHARGPVGVEGLLTQKWVLKPMGSLPQATEDGAAAAAANAPYATVAEFQKGQRVFTHKDVTRKLQDEAAGLRLQA	not soluble
MAHHHHHHMASMNHPDELEGSATSGVLCPLTAYEEVPPTKTRSQIIKEQLLDLENYSFEIPDRPEGDPSGKLAYLDMCEQLHKESFMKFPTHSVANSLCEGKESLDVSFFALGKKGSAALAAALRVNLTIRKLSLLRNHITPSGAMEIARALSETKVVSDLDLSENLLGLTDADDIQGGAVVAEFLKPGNVLKTLSLRDNKLSDQHVTEFAEAAIDNTELHSLDLSFNRIGYIGAIELANILSKNADLQEINLEWNQFQTIGSRHILAEGLLLNNTIKRFNMSWNGLDDACGVLVGRIISENDIEEIVVAHNRIGPAGAEAIAKGLLNTSALTTLILDDNPMQNEGCAAILRVVGEAATLTNVSLQQCRCDSSVVLEADRVMKEVRPDLDIRISEGCCAKVVM	not soluble
